Measurements taken from US20230416335A1.
Where a chain is given by its changes, count along the chain named. Blank lines part the entries; values can stand above or below the binder they belong to.

Experiments:
[1] = target: … (SEQ ID NO: 1)-HLA-A*02 complex (human); assay: SPR (BIAcore) or BLI (Octet) per Example 3, immobilised biotinylated pHLA, 25 C
[2] = target: … (SEQ ID NO: 1)-HLA-A*02 complex (human); assay: cell-based or functional assay

- Kd [1]: 0.138 nM
- t1/2 [1]: 6.38 h
- EC50 (mel624), IFN-γ ELISPOT, T cell activation [2]: 0.0275 nM
B1: ImmTAC molecule a79b64 (TCR-anti-CD3 fusion) (TCR, part only; not given: anti-CD3 scFv, linker, constant regions, not shown: a dimerising Fc or GST)
TCR alpha, part: GDAKTTQPNSMESNEEEPVHLPCNHSTISGTDYIHWYRQLPSQGPEYVIHGLTSNVNNRMASLAIAEDRKSSTLILHRATLRDAAVYYCILILGHSRLGNYIATFGKGTKLSVIP
TCR beta, part: DGGITQSPKYLFRKEGQNVTLSCEQNLNHDAMYWYRQDPGQGLRLIYYSQIMNDEQKGDIAEGYSVSREKKESFPLTVTSAQKNPTAFYLCASSWWTGGSAPIRFGPGTRLTVT

- Kd [1]: 0.0118 nM
- t1/2 [1]: 58.3 h
- EC50 (mel624), IFN-γ ELISPOT, T cell activation [2]: 0.0172 nM
B2: ImmTAC molecule a79b76 (TCR-anti-CD3 fusion) (TCR, part only; not given: anti-CD3 scFv, linker, constant regions, not shown: a dimerising Fc or GST)
TCR alpha, part: B1 TCR alpha, part
TCR beta, part: B1 TCR beta, part with N53G, A101S

- Kd [1]: 0.083 nM
- t1/2 [1]: 8.3 h
- EC50 (mel624), IFN-γ ELISPOT, T cell activation [2]: 0.0134 nM
B3: ImmTAC molecule a28b57 (TCR-anti-CD3 fusion) (TCR, part only; not given: anti-CD3 scFv, linker, constant regions, not shown: a dimerising Fc or GST)
TCR alpha, part: B1 TCR alpha, part with L98A
TCR beta, part: B1 TCR beta, part with N53G, G98S, S100A, A101S, R104S

- Kd [1]: 0.261 nM
- t1/2 [1]: 2.8 h
- EC50 (mel624), IFN-γ ELISPOT, T cell activation [2]: 0.0317 nM
B4: ImmTAC molecule a28b60 (TCR-anti-CD3 fusion) (TCR, part only; not given: anti-CD3 scFv, linker, constant regions, not shown: a dimerising Fc or GST)
TCR alpha, part: B1 TCR alpha, part with L98A
TCR beta, part: B1 TCR beta, part with N53G, S100A, A101S, P102E, R104S

- Kd [1]: 0.087 nM
- t1/2 [1]: 14.9 h
- EC50 (mel624), IFN-γ ELISPOT, T cell activation [2]: 0.0318 nM
B5: ImmTAC molecule a79b71 (TCR-anti-CD3 fusion) (TCR, part only; not given: anti-CD3 scFv, linker, constant regions, not shown: a dimerising Fc or GST)
TCR alpha, part: B1 TCR alpha, part
TCR beta, part: B1 TCR beta, part with N53G, R104Y

- Kd [1]: 0.214 nM
- t1/2 [1]: 5.1 h
- EC50 (mel624), IFN-γ ELISPOT, T cell activation [2]: 0.0139 nM
B6: ImmTAC molecule a28b75 (TCR-anti-CD3 fusion) (TCR, part only; not given: TCR constant regions and anti-CD3 scFv, not shown: a dimerising Fc or GST)
TCR alpha, part: B1 TCR alpha, part with L98A
TCR beta, part: B1 TCR beta, part with N53G, R104S

- Kd [1]: 0.0779 nM
- t1/2 [1]: 8.6 h
- EC50 (mel624), IFN-γ ELISPOT, T cell activation [2]: 0.0138 nM
B7: ImmTAC molecule a79b77 (TCR-anti-CD3 fusion) (TCR, part only; not given: anti-CD3 scFv, linker, constant regions, not shown: a dimerising Fc or GST)
TCR alpha, part: B1 TCR alpha, part
TCR beta, part: B1 TCR beta, part with N53G, S100A

- Kd [1]: 0.0577 nM
- t1/2 [1]: 16.9 h
- EC50 (mel624), IFN-γ ELISPOT, T cell activation [2]: 0.0236 nM
B8: ImmTAC molecule a79b75 (TCR-anti-CD3 fusion) (TCR, part only; not given: anti-CD3 scFv, linker, constant regions, not shown: a dimerising Fc or GST)
TCR alpha, part: B1 TCR alpha, part
TCR beta, part: B1 TCR beta, part with N53G, R104S

- Kd [1]: 0.17 nM
- t1/2 [1]: 7.31 h
- EC50 (mel624), IFN-γ ELISPOT, T cell activation [2]: 0.0601 nM
B9: ImmTAC molecule a109b46 (TCR-anti-CD3 fusion) (TCR, part only; not given: anti-CD3 scFv, linker, constant regions, not shown: a dimerising Fc or GST)
TCR alpha, part: B1 TCR alpha, part with I102Q
TCR beta, part: B1 TCR beta, part with N53G

- Kd [1]: 0.132 nM
- t1/2 [1]: 4.6 h
- EC50 (mel624), IFN-γ ELISPOT, T cell activation [2]: 0.0231 nM
B10: ImmTAC molecule a79b73 (TCR-anti-CD3 fusion) (TCR, part only; not given: anti-CD3 scFv, linker, constant regions, not shown: a dimerising Fc or GST)
TCR alpha, part: B1 TCR alpha, part
TCR beta, part: B1 TCR beta, part with N53G, S100A, R104S

- Kd [1]: 0.052 nM
- t1/2 [1]: 20.4 h
- EC50 (mel624), IFN-γ ELISPOT, T cell activation [2]: 0.0398 nM
B11: ImmTAC molecule a79b69 (TCR-anti-CD3 fusion) (TCR, part only; not given: anti-CD3 scFv, linker, constant regions, not shown: a dimerising Fc or GST)
TCR alpha, part: B1 TCR alpha, part
TCR beta, part: B1 TCR beta, part with N53G, P102E

- Kd [1]: 0.0533 nM
- t1/2 [1]: 12.5 h
- EC50 (mel624), IFN-γ ELISPOT, T cell activation [2]: 0.00955 nM
B12: ImmTAC molecule a79b74 (TCR-anti-CD3 fusion) (TCR, part only; not given: anti-CD3 scFv, linker, constant regions, part only)
TCR alpha, part: B1 TCR alpha, part
TCR beta, part: B1 TCR beta, part with N53G, S100A, A101S

- Kd [1]: 0.089 nM
- t1/2 [1]: 9.16 h
- EC50 (mel624), IFN-γ ELISPOT, T cell activation [2]: 0.0167 nM
B13: ImmTAC molecule a79b66 (TCR-anti-CD3 fusion) (TCR, part only; not given: anti-CD3 scFv, linker, constant regions, not shown: a dimerising Fc or GST)
TCR alpha, part: B1 TCR alpha, part
TCR beta, part: B1 TCR beta, part with N53G, W95P

- Kd [1]: 0.182 nM
- t1/2 [1]: 3.7 h
- EC50 (mel624), IFN-γ ELISPOT, T cell activation [2]: 0.0243 nM
B14: ImmTAC molecule a28b74 (TCR-anti-CD3 fusion) (TCR, part only; not given: anti-CD3 scFv, linker, constant regions, not shown: a dimerising Fc or GST)
TCR alpha, part: B1 TCR alpha, part with L98A
TCR beta, part: B1 TCR beta, part with N53G, S100A, A101S

- Kd [1]: 0.047 nM
- t1/2 [1]: 12.7 h
- EC50 (mel624), IFN-γ ELISPOT, T cell activation [2]: 0.0263 nM
B15: ImmTAC molecule a79b67 (TCR-anti-CD3 fusion) (TCR, part only; not given: anti-CD3 scFv, linker, constant regions, not shown: a dimerising Fc or GST)
TCR alpha, part: B1 TCR alpha, part
TCR beta, part: B1 TCR beta, part with N53G, G98S

- Kd [1]: 0.079 nM
- t1/2 [1]: 8.9 h
- EC50 (mel624), IFN-γ ELISPOT, T cell activation [2]: 0.012 nM
B16: ImmTAC molecule a28b58 (TCR-anti-CD3 fusion) (TCR, part only; not given: anti-CD3 scFv, linker, constant regions, not shown: a dimerising Fc or GST)
TCR alpha, part: B1 TCR alpha, part with L98A
TCR beta, part: B1 TCR beta, part with N53G, A101S, R104S

- Kd [1]: 0.079 nM
- t1/2 [1]: 10.8 h
- EC50 (mel624), IFN-γ ELISPOT, T cell activation [2]: 0.0229 nM
B17: ImmTAC molecule a79b63 (TCR-anti-CD3 fusion) (TCR, part only; not given: anti-CD3 scFv, linker, constant regions, not shown: a dimerising Fc or GST)
TCR alpha, part: B1 TCR alpha, part
TCR beta, part: B1 TCR beta, part with M52V, N53G

- Kd [1]: 0.0231 nM
- t1/2 [1]: 28.7 h
- EC50 (mel624), IFN-γ ELISPOT, T cell activation [2]: 0.0106 nM
B18: ImmTAC molecule a79b58 (TCR-anti-CD3 fusion) (TCR, part only; not given: anti-CD3 scFv, linker, constant regions, not shown: a dimerising Fc or GST)
TCR alpha, part: B1 TCR alpha, part
TCR beta, part: B1 TCR beta, part with N53G, A101S, R104S
